For this assay, the target named is HLA-Cw4-β2m complex refolded with peptide (human | ). Description: SPR. (In general: SPR reads the build-up and loss of mass on a sensor chip optically.)

We go through two molecules from paper doi:10.1101/2024.04.30.591854 (2024).

The Kd is the constant that tells how readily two partners part at equilibrium.

B1: KIR2DL1-Fc fusion protein (Fc fusion)
chain: HEGVHRKPSLLAHPGRLVKSEETVILQCWSDVMFEHFLLHREGMFNDTLRLIGEHHDGVSKANFSISRMTQDLAGTYRCYGSVTHSPYQVSAPSDPLDIVIIGLYEKPSLSAQLGPTVLAGENVTLSCSSRSSYDMYHLSREGEAHERRLPAGPKVNGTFQADFPLGPATHGGTYRCFGSFHDSPYEWSKSSDPLLVSVTGNPSNSWPSPTEPSSKTGNPRHLH
B1: the Kd was found to be 6 µM.

B2: KIR2DS1-Fc fusion protein (Fc fusion)
chain: HEGVHRKPSLLAHPGRLVKSEETVILQCWSDVMFEHFLLHREGMFNDTLRLIGEHHDGVSKANFSISRMKQDLAGTYRCYGSVTHSPYQLSAPSDPLDIVIIGLYEKPSLSAQPGPTVLAGENVTLSCSSRSSYDMYHLSREGEAHERRLPAGTKVNGTFQANFPLGPATHGGTYRCFGSFRDSPYEWSKSSDPLLVSVTGNPSNSWPSPTEPSSETGNPRHLH
B2 yielded a Kd of 23 µM.
